Laboratory results from the nanobody polyreactivity screen of Harvey et al. (2022).

Experiment: yeast display, Sf9 membrane polyspecificity reagent, FACS + sequencing; frameworks hold sequencing errors
Outline: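 Sorting gates, low and high (top ~1%), were placed on anti-HA fluorescence to track expression and on streptavidin fluorescence to track reagent binding. A clone's polyreactivity label is taken from the gate it came out of. The reagent was 10% biotinylated, detergent-solubilized Sf9 membrane, applied for 1 hour at 4 °C to galactose-induced yeast display cells.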

| Sequence | polyreactivity (PSR sort gate) |
| --- | --- |
| QVQLVESGGGLVQAGGSLRLSCAASGITLDVNALGWYRQAPGKERELVADITWSDDSTYYADSVKGRFTISRDNAKNTVYLQMNSLKPEDTAVYYCAADVSVSFHPRGYDYWGQGTQVTVSS | low polyreactivity |
| QVQLVESGGGLVQAGGSLRLSCAASGITLGRYAMGWYRQAPGKERELVAAISRSGGSTYYADSVKGRFTISRANAKTTVYLQMNSLKPEDTAVYYCNRRVYPTSDYDYWGQGTQVTVSS | high polyreactivity |
| QVQLVESGGGLVQAGGSLRLSCAASGITLKLYVMGWYRQAPGKERELVAAISRRGGSTYYADSVKGRFTISRDNAKNTVYLQMNSLKPEDTAVYYCAKDGTQYERQDPAYGYWGQGTQVTVSS | high polyreactivity |
| QVQLVESGGGLVQAGGSLRLSCAASGITLRLYAMGWYRQAPGKERELVAAISKRGGSTYYADSVKWRFTISRDNAKNTVYLQMNSQKPEDTAVYYCAADSGWEHRYDYWGQGTQVTVSS | high polyreactivity |
| QVQLVESGGGLVQAGGSLRLSCAASGITLTVYTMGWYRQAPGKERKLVAAITYGGTSTYYADSVKGRFTISRDNAKNTVYLQMNSLKPEDTAVYYCAARARIYNYWGQGTQVTVSS | high polyreactivity |
| QVQLVESGGGLVQAGGSLRLSCAASGITLTYYAMGWYRQAPGKERELVAAITWNGGHTYYADSVKGRFTISRDNAKNTVYLQMISQKPEDTAVYYCAAELWAYTWYWHSDYWGQGTQVTVSS | low polyreactivity |
| QVQLVESGGGLVQAGGSLRLSCAASGITLYAYVMGWYRQAPGKERELVAAIRSGGSTYYADSVKGRFTISRDNAKNTVYLQKNSLKPEDTAVYYCAAYYPLWGWGYDYWGQGTQVTVSS | high polyreactivity |
| QVQLVESGGGLVQAGGSLRLSCAASGITLYGNAMGWYRQAPGKEREFVAAISRSGDRTYYADSVKGRFTISRDNAKNTVYLPMYSLKPEDTAVYSCARDYRSYTGSYDTSYDYWGQGTQVTVSS | high polyreactivity |
| QVQLVESGGGLVQAGGSLRLSCAASGITLYGYTMGWYRQAPGKERELVAGISRGGSTYYADSVKGRFTISRDNAKNSVYLEMNSLKPDVTAVYYCAAAGWYRGDYWGQGTQVTVSS | high polyreactivity |
| QVQLVESGGGLVQAGGSLRLSCAASGITLYWYAMGWYRQAPGKERELVAAISRRGGTTYYADSVKGRFTISRDNAKNTVYLQMNSLKPEDTAVYYCAKAPDTQTSWSRQEGNYWGQGTQVTVSS | low polyreactivity |
| QVQLVESGGGLVQAGGSLRLSCAASGITSCFSAMGWYRPAPGQERELVAGISSGGSTNYADSVKGRFTISRDNAKNTVYLQMTSLKPEDTAVYYCPATFYNRYETRYYYWGQGTQVTVSS | high polyreactivity |
| QVQLVESGGGLVQAGGSLRLSCAASGITYEGYAMGWNRKAPGKERELVAAIRSSGTSTYYADSVKGRFTISRDNAKNSVYLQMNSLKPEDTAVYYCNRARSSSRYDYWGQGTQVTVSS | low polyreactivity |
| QVQLVESGGGLVQAGGSLRLSCAASGITYPRYTMGWYRQAPGKERQLVAAITRRSGSTNYADSVKGRITISRDNAKNTVYLQMNSLKPEDTAVYYCAAVVQVYDRGYHVIAKYYYWGQGTQVTVSS | high polyreactivity |
| QVQLVESGGGLVQAGGSLRLSCAASGITYYNAMGWYRQAAGKERELVARISWSSVSTYYADSVKGRFTISRDNAKNTVYLQMNSLKPEDTAVYYCAAEVRGSDYDYWGQGTQLTVSS | high polyreactivity |
| QVQLVESGGGLVQAGGSLRLSCAASGIYINAMGWYRQAPGKERELVAAISRGGSTYYADSVKGRFTISRDNAKNTVYLKMNSLKPEDTAVYYCAKLIGRWRLYHTFVKGDYWGQGTQVTVSS | high polyreactivity |
| QVQLVESGGGLVQAGGSLRLSCAASGIYPYYAMGWYRQAPGKERELVATISSADGPKYADSVKGRFTISRDNAKNTVYLQMNSLKPEDTAVYYCNAYVWSWHDYWGQGTQVTVSS | low polyreactivity |
| QVQLVESGGGLVQAGGSLRLSCAASGLICPLNAMGWYRQAPGKERELVAAITYSGGGTYYADSVKGRFTISRDNAKNTVDLQMNSLKAEDTAVYYCAADGSVSYYTYYYWGQGTHVTVSS | low polyreactivity |
| QVQLVESGGGLVQAGGSLRLSCAASGLIDSYYAMGWYRQAPGKERELVAVITSGGSTYYADSVKGRFTISRDNAKNTVYLQMNSLNPEDTAVYYCAARVRVSYNRYHGLYAVSRGDYWGQGTQVTVSS | high polyreactivity |
| QVQLVESGGGLVQAGGSLRLSCAASGLIFAEYAMGWYRQAPGKERELVARITSGGSTDYADSVKGRFTISRDNAKNTVYLQMNSLKPEDTAVYYCAARYYSQDKNASTASDFDYWGQGTQVTVSS | low polyreactivity |
| QVQLVESGGGLVQAGGSLRLSCAASGLIFAGYAMGWYRQAPGKERELVAAITWRGGRTYADSVKGRFTISRDNAKNTVYLQMNSLKPEDTAVYYCAVRRWGTSFVEDDYWGQGTQVTVSS | low polyreactivity |
| QVQLVESGGGLVQAGGSLRLSCAASGLIFAQYAMGWYRQAPGKEREFVAAISYSGGNTYYADSVKGRFTISRDNAKNTVYLQMNSLKPEDTAVYYCAADYYWYHYAGWVGQYGYWGQGTQVTVSS | low polyreactivity |
| QVQLVESGGGLVQAGGSLRLSCAASGLIFAYNTMGWYRQAPGKERELVAGITSSGSTYYADSVKGRFTISRDNEKNTVYLQMNSLKPEDTAVYYCAAEWDDGRSWYWYYLVGFEYWGQGTQVTVSS | high polyreactivity |

| Sequence | polyreactivity (PSR sort gate) |
| --- | --- |
| QVQLVESGGGLVQAGGSLRLSCAASGLIFAYYAMGWYRQAPGKERELVAAISWTGGSTYYADSVKGRFTISRDNAKNTVYLQMTSLKPEDTAVYYCNTVGKPGFYSWGQGTQVTVSS | high polyreactivity |
| QVQLVESGGGLVQAGGSLRLSCAASGLIFDDYAMGWYRQAPGKERELVAAISLSGGSTFYADSVKGRFTISRDNAKNTVYLQMNSLKAEDTAVYYCAAQARRAYVQTRMYYWGQGTQVTVSS | high polyreactivity |
| QVQLVESGGGLVQAGGSLRLSCAASGLIFDHNAMGWYRQAPGKERELVAAISYSGARTYYADSVKGRFTISRDNAKNTVYLQMYSLKPEDTAVYYCNAVINSHRRHVTYDYWGQGSQVTVSS | high polyreactivity |
| QVQLVESGGGLVQAGGSLRLSCAASGLIFDIYAMGWYRQAPGKERELVATISKRGGTTSYADSVKGRFTISRDNAKNTVYLQMNSLKPEDTAVYYCAATTLIAYDYWGQGTQVTVSS | high polyreactivity |
| QVQLVESGGGLVQAGGSLRLSCAASGLIFDPYAMGWYRQAPGKERELVAAITWSGDSTSYADSVKGRFTISRDNAKNTVYLQMNSLKPEDTAVYYCAADGWSRSWGYWVHYGYWGQGTQVTVSS | low polyreactivity |
| QVQLVESGGGLVQAGGSLRLSCAASGLIFDSYAMGWDRQAPRKERELVAAITYTGGSTYYADSVKGRFTISRDNAKNSVYLQMNSLKPEDTAVYYCAARRQRERYGYWGQGTQVTVSS | high polyreactivity |
| QVQLVESGGGLVQAGGSLRLSCAASGLIFDVYDMGWYRQAPGKERELVAAISTTGGSTFYADSVKGRFTISRDNAKNTVYLQMYSLKPEDTAVYYCNADWAPTGFSGGYPYDYWGQGTQVTVSS | high polyreactivity |
| QVQLVESGGGLVQAGGSLRLSCAASGLIFFNYYAMGWYRQAPGKERELVAAIRYGGGSTYYADSVKGRFTISRDNAKNTVYLLMNSLKPEDTAVDYCAARFKGYYRYGYWGQGTQVTVSS | high polyreactivity |
| QVQLVESGGGLVQAGGSLRLSCAASGLIFGFYAMGWYRQAPGKEWELVAAINSGGITYYADSVKGRFTISRDNAKNTVYLQMNSLKPEDTSVYYCAAVHSRRARYDYWGQGTQVTVSS | low polyreactivity |
| QVQLVESGGGLVQAGGSLRLSCAASGLIFGGNAMGWYRQAPGKERELVAAISRSTGRTYYADSVKGRFTISRDNEKNTVYLQMNSLKPEDTAVYYCNAVGYAFPSYDSWGQGTQVTVSS | high polyreactivity |
| QVQLVESGGGLVQAGGSLRLSCAASGLIFGGNAMGWYRQAPGKERELVAAISRSTGRTYYADSVKGRFTISRDTAKNTVYLQMNSLKPEDTAVYYCNAVGYAFPSYDSWGQGTQVTVSS | high polyreactivity |
| QVQLVESGGGLVQAGGSLRLSCAASGLIFGLYSMGWYRQAPGKERELVAAISYRTDSTYADSVKGRFTISRDNAKNTVYLQMNSLKPEDTAVYYCAADLRVSVRYYYWGQGTQVTVSW | low polyreactivity |
| QVQLVESGGGLVQAGGSLRLSCAASGLIFGPYAMGWYRQAPGKERELVAAISARGGSTRYADSVKGRFTISRDNAKNTVYLQMNSLKPEDTAVYYCAASTWYGYDYWGQGTQVTVSS | high polyreactivity |
| QVQLVESGGGLVQAGGSLRLSCAASGLIFGRNAMGWYRQAPGKERELVAAINNSGGTTYYADSVKGRFTISRDNAKNTVYLQMNSLKPEDTAVYYCNAYFRNWRYSPGGYWGQGTQVTVSS | high polyreactivity |
| QVQLVESGGGLVQAGGSLRLSCAASGLIFGSNAMGWYRQAPGKERELVAAISSGGTTKYADSVKGRFTISRDNAKNTVYLQMNSLKPEDTAVYYCAAQDYSYTTRFQDDYWGQGTQVTVSS | low polyreactivity |
| QVQLVESGGGLVQAGGSLRLSCAASGLIFGTYAMGWYREARGIERELVAAITSGGRTYYADSVKGRFTISRDNAKNTVYLQLNSLKPEATAVYYCAAVLSQWGAVFLYVLSTGLDYWGQGTQVTVSS | low polyreactivity |
| QVQLVESGGGLVQAGGSLRLSCAASGLIFGWYAMGWYRPEPGKEREFVASIRYGGGSTYYADSVKGRFTISRDNAKNTVYLQMNSLKPEDTAVYYCAADRYPWHLQYVEYDSDYWGQGTQVTVSS | low polyreactivity |
| QVQLVESGGGLVQAGGSLRLSCAASGLIFGYYAMGWYRQAPGKEREFVAAISGTGGSTYYADSVKGRFTISRDNAKNTVYLQMNSLKPEDTAVYYCAARQGWWRFYAYDYWGQCTQVTVSS | high polyreactivity |
| QVQLVESGGGLVQAGGSLRLSCAASGLIFGYYAMGWYRQAPGKERELVAAITSSGASTYYADSVKGRFTISRDNAKNSVYLQMNSLKPEDTAVYYCNKYRYRSLGYDYWGQGTQVTVSS | high polyreactivity |
| QVQLVESGGGLVQAGGSLRLSCAASGLIFGYYAMGWYRQAPGKERELVAVISYSGGSTYYADSVKGRFTITRDNAKNTVYLQMNSLNPEDTAVYYCNTYGAYYRHTKEYGYWGQGTQVTVSS | high polyreactivity |
| QVQLVESGGGLVQAGGSLRLSCAASGLIFHRNAMGWYRQAPGKERELVAAITKTGGGTYYADSVKGRFTISLDNAKNTVYLQMNSLKPEDTAVYYCAADTQRTFYYWGQGTQVTVSS | low polyreactivity |
